± gives the uncertainty stated by the source.
Test: amyloid nucleation score (Sup35N fusion, yeast selection) (log enrichment); library NNK1; higher = more nucleation; inactive = no reads after selection
Outline: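 Peptides of 20 random codons, each fused to Sup35N, were expressed in psi-negative yeast. Cells were induced with 100 μM copper sulfate for 24 hours and grown 7 days at 30°C on medium lacking adenine and uracil, and plasmid inserts before and after selection were Illumina-sequenced. Nucleation scores are DiMSum log enrichments of output over input reads, centred on the mode score of non-aggregating sequences, and sequences under 100 input reads were excluded.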

Row | Substance | amyloid nucleation score
1 | DFYNETVTFFTHKIVINNWT | 2.17 ± 0.31
2 | FSQLYMGMYPGHNLLKYHSG | -0.275 ± 0.22
3 | CNTLDLMAFNSLYLSPVSTC | inactive
4 | MPVALKIAILTFWEKSNLCE | 1.27 ± 0.88
5 | RPAKLMAMPKILIGPH | 0.131 ± 0.26
6 | RGTGLICCTNVCGRTWKGHN | 7.406 ± 0.047
7 | FRSVGVYAISNLYGHSRYFS | -0.533 ± 0.42
8 | AVLSGRHWHTLYNSIALSEL | 0.869 ± 0.45
9 | FMRPVYHYMPSMTSYVSLDT | inactive
10 | IMMSYRFHFNNSERIRGCVR | -0.321 ± 0.26
11 | MASPLSLGKAVALAKHKWGD | 0.001 ± 1.1
12 | HLVRRLYSKWMQT | -0.711 ± 0.96
13 | MSSRDNFWVSRGAMNYRMGA | -0.325 ± 0.33
14 | CDFRIFRLSVPGTYYVCDWL | -0.018 ± 0.6
15 | YKDYVDLERAFKLMPGQKLW | inactive
16 | MLIFNGFTLLVMRVEVAVGS | 0.066 ± 0.64
17 | RLVESRLCASCVDGG | -0.166 ± 0.46
18 | NTAFLAVLSNALMVGMYSLL | 0.606 ± 0.58
19 | LKNTVHWTADHFRVTSP | -0.623 ± 0.67
20 | FTYIISRISFMRDWVF | -0.257 ± 1.4
21 | WFQVASRVGLKKVYWVGHLE | inactive
22 | NVSVVSSHMLICMGMATRNP | 1.92 ± 0.36
23 | SYAYKLETNSRFMIQWKVQY | 3.48 ± 0.092
24 | WNPYPTCSYSPFATSGDSAF | -1.13 ± 0.76
25 | RLAVKDNVCKLDMMSGCCLS | 5.45 ± 0.059

Row | Substance | amyloid nucleation score
26 | SSSHPSLIGNLDTRLNWMTM | 1.52 ± 0.32
27 | AFRIFPHL | inactive
28 | RHSSYIGMCRT | 1.66 ± 0.56
29 | QHHMVEIWPSDECVEWLVSS | -0.034 ± 0.22
30 | ADCFNLYGRTFDKFKPPHMD | 0.631 ± 0.54
31 | ATLVTV | 0.759 ± 0.67
32 | YVIFCTPSFFIL | 5.52 ± 0.068
33 | VSFLASMLRIGMCLPKQVMW | 0.183 ± 0.8
34 | CLFKGLCSGWLREYALPYFC | -1.05 ± 0.97
35 | FYYYSEFLGPIVYPQHDLLL | -0.1 ± 1.1
36 | LCKIKESNDLFSARSIVAHQ | 1.06 ± 0.59
37 | RTLFIRSLVYFVLSSFIFAV | -0.004 ± 0.36
38 | WESSGFQMICRSFSFNMFSS | -0.458 ± 0.52
39 | KVLLIRWDLLC | 0.291 ± 0.46
40 | LFNMFDQITCIVDSDNYRHA | 0.116 ± 0.25
41 | GSYFGKGSVK | 0.563 ± 0.97
42 | WMYTMTGFEVNRTVNFYWTI | -0.095 ± 0.29
43 | SPPSLRNLNYIFAY | -0.948 ± 2.4
44 | NPLHGARFLIGNVFIIRNFK | 5.52 ± 0.073
45 | DFLKGLFIRFRKSNFE | -1.11 ± 1.7
46 | KSLVNNCDSVIAL | 0.506 ± 0.25
47 | TLRLAREGWWEWKHVSRGEY | -0.033 ± 0.26
48 | RNFLNAYW | -0.307 ± 0.85
49 | MAPLTMTSDLSHISKTGIWG | 1.38 ± 0.9
50 | GKSRS | 0.784 ± 0.49

Row | Substance | amyloid nucleation score
51 | DVYTLMGEVDELRSFRIIIR | -0.458 ± 0.27
52 | HRLRLSVVRAIYDTQIHQRA | -0.043 ± 0.34
53 | PSVTTS | -0.482 ± 0.58
54 | GDVSRQTVEV | -0.094 ± 0.43
55 | SIFSSSEVGVQLYTMGG | 0.91 ± 0.62
56 | ITMVISLCALFMSRSIIFKG | -0.154 ± 1
57 | EFRQMVVSSGSDERGERDKG | 0.052 ± 0.29
58 | NQNAGELNKFPWDRWKYLYV | -1.1 ± 0.74
59 | RINQVTGVVQLVFRCRNSRL | 7.643 ± 0.047
60 | IWTNTLNFTARFANVLAGTG | -0.705 ± 1.2
61 | WKVKLNGIG | 0.341 ± 0.28
62 | KPKCNHRDRTSLEILRNNAL | 1.35 ± 0.43
63 | RNQFDYDRWYVMRSHYRVIC | -0.526 ± 0.58
64 | IMDSSMGGSSKMYKVVANDL | 0.311 ± 0.64
65 | RDGIMYG | 0.505 ± 0.39
66 | KENRFISQSDTALYSIKKQH | 0.549 ± 1
67 | QVVFE | 0.1 ± 0.68
68 | NFELLPYLSLNWSHFFCSCF | 6.56 ± 0.061
69 | FVGSSFGDDFISVSIHSWRP | inactive
70 | WVLPEAHVYGRWVT | 1.06 ± 0.52
71 | GSHIVLSSFFGMLMLWGVDP | 0.56 ± 0.39
72 | YLAQIELRLV | 0.053 ± 0.79
73 | MFCIDSRAVAGMRDGRINLG | 1.64 ± 0.21
74 | PCLVSCHPGADAYLYDNLEV | -0.856 ± 2.4
75 | WSINMCCMRSRLWNFDGRKE | 4.04 ± 0.074

Row | Substance | amyloid nucleation score
76 | SLSFTEVGRNRLSWRSAHSK | -0.616 ± 1.7
77 | MPAMTMMWQ | 0.415 ± 0.4
78 | SEMPIFYLWDPQSGQRSWDG | 0.036 ± 0.93
79 | DYEPLASDAREEDFCNARRG | -0.677 ± 0.64
80 | NRECYYRPGNALNHGFFQIL | 0.479 ± 1.2
81 | GPCNTRSCV | -0.037 ± 0.43
82 | FNVALFMEI | 1.07 ± 0.27
83 | GGRLTRQRIVSVLLYVGVAG | 0.077 ± 0.69
84 | RQPANEELPFSVTGK | -0.892 ± 0.65
85 | HRLKTYIMVSFIYRADAVGI | 4.89 ± 0.068
86 | IIMVYSRSLLMLKLSLVVPC | inactive
87 | HHLVISCDSLENASYRLCIQ | 1.45 ± 0.43
88 | TCRVEMPSCCCFSGIVGCDR | 3.53 ± 0.067
89 | CFPPSNCYLLYKLCVLLRIN | -0.134 ± 0.45
90 | MQNRCSCWNFECRAPW | 1.06 ± 0.33
91 | ALRGVRVMWAKRS | -0.484 ± 0.88
92 | FMTSDPYVLIHQALVRINEY | 4.58 ± 0.095
93 | GSVINGWRRYLFVISILLGL | -0.374 ± 0.32
94 | HSDCRFRKLGRTHTSMRVCC | 0.096 ± 0.49
95 | SLLALLPLQYWVYRIKNLVH | -0.057 ± 1.5
96 | VERTCGVGTRLFTCYGQVAI | -0.3 ± 0.53
97 | WFFHLTNLSFCCNPLVVPRV | -0.004 ± 0.78
98 | VFLQFVMDDSHGLNK | inactive
99 | DIIWMFWRIINSPFFTQSVV | -0.176 ± 0.26
100 | KWQEQGVIFSNFLLHRHWDV | -1.23 ± 1.6

Row | Substance | amyloid nucleation score
101 | GFLSATWCSQWSIILVKERG | 1.48 ± 0.45
102 | SSAFSLRLFDLSLNYFEFDE | -0.595 ± 0.68
103 | FSSSWELVRLYTASCKHDSK | 0.782 ± 0.2
104 | ECFSKFLNLRGSPLG | -0.098 ± 0.53
105 | RGAQLIRRSFKTVAGLGFIM | -0.767 ± 1.4
106 | GFWDFWVGRCLSSYVQFANL | 0.28 ± 0.48
107 | FKYALKTSCLLIVQDGGSMR | -0.023 ± 1.4
108 | WPWCQYTYRFLSIMCKVFL | 0.288 ± 0.65
109 | RSSWKVLKRFRVVRERHEIT | 0.257 ± 1.1
110 | TRDTLIWFGRFGSMTDWCSW | 0.192 ± 0.63
111 | EVASGVCTRIRLYSRCEWKG | 2.84 ± 0.091
112 | LDDWRVMLVSANMHHVRC | -0.642 ± 0.39
113 | LYRWCGPCYLIWGVSWS | -0.199 ± 0.45
114 | QYSGYNRRDDSFPSWGCLLT | inactive
115 | FNAAYIAGVGNLMTWDNSSN | -1.07 ± 0.61
116 | LMDAEFIMVFTL | 0.918 ± 0.2
117 | SCETVWYVFNSAIACFTFRR | 4.18 ± 0.15
118 | KFRESFLT | -1.32 ± 0.94
119 | SYAFLCNGSSRGLIIAMVLT | -0.057 ± 0.29
120 | KRSNSFL | 0.319 ± 0.27
121 | SMWKWDQKGKDNGTKNNKRL | -0.939 ± 0.8
122 | SRYYNILWNKVCRVRDNH | inactive
123 | YDYSLCANIMNRYHAK | 0.333 ± 0.29
124 | MSSPMRRDAKL | 2.67 ± 0.14
125 | LDEYINNEDSMFLCGILLSS | 0.2 ± 0.3

Row | Substance | amyloid nucleation score
126 | PSSLLNMDTTRGYHDPEWGI | -0.381 ± 0.3
127 | DLFLRYSLAGYYAMESPADS | 0.331 ± 0.33
128 | LQTIYFLYE | 2.25 ± 0.13
129 | QFLALVCFCIPRLVRLAGYE | -1.35 ± 1.1
130 | YQSLVMFMEPDSRVLRVCRA | 0.104 ± 0.69
131 | PLKFTSSMSG | -1.23 ± 0.51
132 | FFLMIQSVT | 0.84 ± 0.47
133 | SDVYRGVVIVGHMIAKHMLV | 0.494 ± 0.55
134 | LPHYNMLSPRIIRTLVVERF | 0.694 ± 1.1
135 | CNISAITRFTEIWSRVTSVF | 1.59 ± 0.8
136 | ERVLYIGFYTYVDNCFRLLK | -0.12 ± 0.34
137 | KAYRV | -0.633 ± 0.39
138 | DGTNAYV | -0.986 ± 0.56
139 | YDKFPTLVMGAKRSGWG | -0.761 ± 0.78
140 | TTCSLVSSAAWMY | -0.223 ± 0.39
141 | SQAAGSVY | 0.026 ± 0.25
142 | CRSTYDQLPEYLST | -0.117 ± 0.56
143 | KSYNWDYGHLRVNYGGHMMI | -0.544 ± 1.4
144 | VLCSSWLLWKDAI | 0.218 ± 0.61
145 | VTWVWFGVLVCFRRDGTLTY | 0.676 ± 0.85
146 | LYDCCYIFTYYGSRYLTQKS | -0.091 ± 0.27
147 | SGHNLWRRGQKWSL | -0.455 ± 0.58
148 | VSEIN | 2.23 ± 0.57
149 | LITMGMTRIYILMISDYLKF | 0.701 ± 0.51
150 | GYTLRPNERPKIRQV | 0.244 ± 0.63

Row | Substance | amyloid nucleation score
151 | VCDFNVNYMSLVCEIHGT | 0.495 ± 0.56
152 | SATIKYHYFLTFFNVDRFCR | 2.07 ± 0.46
153 | FYFRNSSGF | 2.49 ± 0.58
154 | ATWTAWRHVAHFWPWAHAKS | 0.936 ± 0.56
155 | EMAELLAMRQLLRTKIH | 0.265 ± 0.34
156 | FTLCQASYMN | -0.655 ± 0.67
157 | MVVFRSY | -2.07 ± 1.9
158 | YSNIRFSMNIYRTLRDRLGA | 5.12 ± 0.095
159 | SLVTDCYVPGFLYAMVIHAG | 1.01 ± 0.45
160 | NCIPALHEYVCMRR | 0.282 ± 0.54
161 | LFFQSDMFGVFCISYTTGVS | 0.323 ± 0.32
162 | GSIIMWHYGYYHGCNFYCCH | 6.98 ± 0.07
163 | PCYAVYITAPINV | 5.94 ± 0.093
164 | ERAKRSY | 3.04 ± 0.069
165 | CSWAASY | -0.689 ± 1.9
166 | FMLYTTVTERAWRHLN | 0.395 ± 0.36
167 | DPFAHYISVYRDSHSVYLSS | inactive
168 | RLLCCFCTWTLQMFCYSGCC | 5.981 ± 0.053
169 | SINLCGLWKVYYILAFMW | -2.26 ± 2.4
170 | VKCVKVLMLHSWF | 1.53 ± 0.38

From the supplement of paper PMC12042874
